Measured values as given in US20210238276A1 (INTEGRAL MOLECULAR, published 2021).

Key:
Test in all cases: flow cytometry, alanine-scan library in HEK-293T, with cytochalasin B
hsGLUT4 L155A = molecular target: T1, hsGLUT4 L155A (human, UniProt P14672 1-509)
T1 sequence: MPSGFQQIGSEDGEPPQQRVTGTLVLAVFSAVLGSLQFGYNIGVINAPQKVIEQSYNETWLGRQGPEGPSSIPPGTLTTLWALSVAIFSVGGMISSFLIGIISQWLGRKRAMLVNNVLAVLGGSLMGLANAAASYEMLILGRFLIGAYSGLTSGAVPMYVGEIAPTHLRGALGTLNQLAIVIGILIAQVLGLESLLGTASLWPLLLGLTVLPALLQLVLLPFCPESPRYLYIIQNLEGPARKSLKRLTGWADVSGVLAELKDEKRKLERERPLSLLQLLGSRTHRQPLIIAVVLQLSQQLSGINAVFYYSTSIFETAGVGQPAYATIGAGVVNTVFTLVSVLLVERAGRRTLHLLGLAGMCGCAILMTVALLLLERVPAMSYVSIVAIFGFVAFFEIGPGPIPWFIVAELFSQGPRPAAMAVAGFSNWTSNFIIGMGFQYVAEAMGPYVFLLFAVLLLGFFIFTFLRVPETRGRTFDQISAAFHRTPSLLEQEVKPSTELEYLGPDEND
Outline: (§1)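 HEK-293T cells expressing individual GLUT4 alanine mutants were stained 48 h post-transfection with anti-GLUT4 scFv MAbs (2 μg/ml), then biotinylated secondary and streptavidin-PerCP, and read by high-throughput flow cytometry. Where used, cytochalasin B (10 uM final) was given for 30 min before and during primary antibody staining.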

hsGLUT4 I313A = molecular target: T2, hsGLUT4 I313A (human, UniProt P14672 1-509)
T2 sequence: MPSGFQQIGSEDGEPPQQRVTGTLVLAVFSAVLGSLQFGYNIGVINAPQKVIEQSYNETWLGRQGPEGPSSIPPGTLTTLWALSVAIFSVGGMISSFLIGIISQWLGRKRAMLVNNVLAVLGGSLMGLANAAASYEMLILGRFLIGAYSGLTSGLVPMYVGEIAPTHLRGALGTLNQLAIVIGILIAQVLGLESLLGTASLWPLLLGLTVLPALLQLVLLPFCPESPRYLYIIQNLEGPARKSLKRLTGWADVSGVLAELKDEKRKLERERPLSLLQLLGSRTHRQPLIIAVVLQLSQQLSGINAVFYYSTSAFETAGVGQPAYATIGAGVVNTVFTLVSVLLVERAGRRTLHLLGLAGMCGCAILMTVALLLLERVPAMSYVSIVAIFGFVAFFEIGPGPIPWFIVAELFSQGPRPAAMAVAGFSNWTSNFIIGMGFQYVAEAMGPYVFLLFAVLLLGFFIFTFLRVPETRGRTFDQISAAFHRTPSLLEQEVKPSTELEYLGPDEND
Outline: as §1

hsGLUT4 F314A = molecular target: T3, hsGLUT4 F314A (human, UniProt P14672 1-509)
T3 sequence: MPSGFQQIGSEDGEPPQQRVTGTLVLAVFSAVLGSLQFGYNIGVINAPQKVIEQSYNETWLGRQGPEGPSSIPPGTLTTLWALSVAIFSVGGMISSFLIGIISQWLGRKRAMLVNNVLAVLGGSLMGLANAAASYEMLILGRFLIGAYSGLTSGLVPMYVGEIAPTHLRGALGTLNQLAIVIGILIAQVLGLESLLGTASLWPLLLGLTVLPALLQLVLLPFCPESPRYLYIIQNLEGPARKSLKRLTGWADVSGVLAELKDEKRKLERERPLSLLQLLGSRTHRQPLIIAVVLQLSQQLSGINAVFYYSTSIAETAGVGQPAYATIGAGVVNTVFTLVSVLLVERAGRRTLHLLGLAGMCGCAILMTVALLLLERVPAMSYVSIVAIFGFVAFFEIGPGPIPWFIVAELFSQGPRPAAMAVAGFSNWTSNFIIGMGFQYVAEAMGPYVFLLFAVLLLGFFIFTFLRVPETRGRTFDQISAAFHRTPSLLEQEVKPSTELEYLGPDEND
Outline: as §1

hsGLUT4 Y502A = molecular target: T4, hsGLUT4 Y502A (human, UniProt P14672 1-509)
T4 sequence: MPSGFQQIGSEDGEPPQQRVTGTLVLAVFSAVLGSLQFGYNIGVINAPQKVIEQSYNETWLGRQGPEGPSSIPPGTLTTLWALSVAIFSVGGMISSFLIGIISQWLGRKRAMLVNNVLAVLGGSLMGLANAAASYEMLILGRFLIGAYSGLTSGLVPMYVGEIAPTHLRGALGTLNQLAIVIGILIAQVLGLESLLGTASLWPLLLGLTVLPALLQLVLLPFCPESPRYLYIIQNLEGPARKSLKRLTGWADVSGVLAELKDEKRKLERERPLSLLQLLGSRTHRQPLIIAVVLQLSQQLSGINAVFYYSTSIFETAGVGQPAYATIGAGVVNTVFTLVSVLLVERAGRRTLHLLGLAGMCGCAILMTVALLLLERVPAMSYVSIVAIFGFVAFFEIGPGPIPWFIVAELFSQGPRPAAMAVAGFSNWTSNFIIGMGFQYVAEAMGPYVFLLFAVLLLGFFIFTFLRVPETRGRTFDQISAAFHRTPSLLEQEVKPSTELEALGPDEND
Outline: as §1

B1: AB102 (Fc fusion)
scFv: ALTQPSSVSANLGGTVKITCSGGGSYGYGWYQQKSPGSAPVTVIYSNDQRPSDIPSRFSGSKSGSTATLTITGVRAEDEAIYYCGSTDSDYVGIFGAGTTLTVLGQSSRSSGGGGSSGGGGSAVTLDESGGGLQTPGGTLSLVCKASGFDFSSYATIWVRQAPGKGLEWVAGISGTGTGSSTGYAPAVKGRATISRDNGQSTVRLQLNNLRAEDTGSYFCAKSTGYGDSWIYPDSIDAWGHGTEVIVSS
notes: also called MAb AB102; not shown: Fc fragment of human IgG1, cloned in frame with the scFv
% of binding to wild type GLUT4 (hsGLUT4 L155A): 26% | % of binding to wild type GLUT4 (hsGLUT4 I313A): 15% | % of binding to wild type GLUT4 (hsGLUT4 F314A): 23% | % of binding to wild type GLUT4 (hsGLUT4 Y502A): 94%
